In paper PMC12432892, “Therapeutic applications of interface-mimicking peptides for targeting the SARS-CoV-2 NSP12-NSP8 RdRp complex” (Molecular Therapy, 2025):

Target: SARS-CoV-2 NSP12 (SARS-CoV-2), P0DTD1

In the case of NDALNNIINNARDGCVPLNIIPLTTA (modifications not checked) [N8-Pepα], the IC50 of inhibition of SARS-CoV-2 RdRp activity in the cell-based minigenome (luciferase) assay; pair blocked: NSP12-NSP8 is reported as 8 µM.
